The target of test [1] is fibronectin (human (endogenous in dHL-60)) (UniProt P02751).
Test [2] has the same target. This is another data set of the same source.

Turning to “integrin α5β1 (from UniProt P08648 42-1049; P05556 21-798) (receptor)”, in test [1], the adhesion of K562 cells to NETs coated plates (NETs from dHL-60 stimulated in serum free conditions), percentage of adherent cells was 62% and the adhesion of K562 cells to NETs coated plates (serum free NETs) with anti-integrin blocking Ab, percentage of adherent cells was found to be 10%. For the same substance, in test [2], the adhesion of K562 cells to NETs coated plates (NETs from dHL-60 stimulated with 10% FBS), percentage of adherent cells stood at 59% and the adhesion of K562 cells to NETs coated plates with anti-α5β1 blocking antibody (P1D6), percentage of adherent cells is 24%.

The values above are taken from publication PMC5293257.
